The target in the series is Biotin-Crosstide (Anaspec).

B1: Akt1-S473E-T308P (protein)
chain: HHHHHHMDFRSGSPSDNSGAEEMEVSLAKPKHRVTMNEFEYLKLLGKGTFGKVILVKEKATGRYYAMKILKKEVIVAKDEVAHTLTENRVLQNSRHPFLTALKYSFQTHDRLCFVMEYANGGELFFHLSRERVFSEDRARFYGAEIVSALDYLHSEKNVVYRDLKLENLMLDKDGHIKITDFGLCKEGIKDGATMKTFCGTPEYLAPEVLEDNDYGRAVDWWGLGVVMYEMMCGRLPFYNQDHEKLFELILMEEIRFPRTLGPEAKSLLSGLLKKDPKQRLGGGSEDAKEIMQHRFFAGIVWQHVYEKKLSPPFKPQVTSETDTRYFDEEFTAQMITITPPDQDDSMECVDSERRPHFPQFEYSASSTA
Turning to B1, the KM (µM) (present results), peptide substrate amounted to 9 µM.
